Patent US20250066476A1 (TENEOONE, published 2025)
Residue numbers refer to the chain shown, from its start.

T1: human B-cell maturation antigen (BCMA) (human, UniProt Q02223 1-54, limits assumed)
T1 construct: also called CD269; TNFRSF17
T1 sequence (looked up): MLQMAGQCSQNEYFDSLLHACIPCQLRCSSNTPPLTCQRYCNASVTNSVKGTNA

B1: anti-PSMA heavy-chain antibody clone ID 346172 (antibody, V domains shown)
VH: QLQLQESGPGLVKPSETLSLTCTVSGGSISSSSYYWGWIRQPPGKGLEWIGSIDYSGYTYYNPSLKSRVTISVDTSKNQFSLKLSSVTAADTAVYNCARHKAATADFDYRGQGTLVTVSS
notes: heavy chain-only antibody (UniAb/HCAb)
B2: anti-PSMA heavy-chain antibody clone ID 325920 (antibody, V domains shown)
VH: B1 VH with K66Q
notes: as for B1
B3: anti-PSMA heavy-chain antibody clone ID 326109 (antibody, V domains shown)
VH: B1 VH with S32N, P42S, I50L, D54Y, Y55D, Y58S, Y60H, T70I, V73G, N96Y
notes: as for B1
B4: anti-PSMA heavy-chain antibody clone ID 346165 (antibody, V domains shown)
VH: B1 VH with I53V, K66Q
notes: as for B1
B5: anti-PSMA heavy-chain antibody clone ID 346181 (antibody, V domains shown)
VH: B1 VH with S33N, Y35F, P42S
notes: as for B1
B6: anti-PSMA heavy-chain antibody clone ID 325748 (antibody, V domains shown)
VH: QVQLVESGGGVVQPGRSLRLSCAASGFSFSSYGMHWVRQAPGKGLEGVAVIWYDGSNRYYADSVKGRFTISRDNSKNTLYLQMNSLRAEDTAVYYCAREPRIGYYYESSGYYSLDYRGQGTLVTVSS
notes: as for B1
B7: anti-PSMA heavy-chain antibody clone ID 325742 (antibody, V domains shown)
VH: B6 VH with G47W, R58K, N74Y, Y112D
notes: as for B1
B8: anti-PSMA heavy-chain antibody clone ID 325836 (antibody, V domains shown)
VH: B6 VH with S30R, G47W, R58K, N74Y, E107D, Y112D
notes: as for B1
B9: anti-PSMA heavy-chain antibody clone ID 325867 (antibody, V domains shown)
VH: B6 VH with S30R, G47W, R58K, N74Y, Y112D
notes: as for B1
B10: anti-PSMA heavy-chain antibody clone ID 325940 (antibody, V domains shown)
VH: B6 VH with S28I, S30R, L45P, G47W, R58K
notes: as for B1
B11: anti-PSMA heavy-chain antibody clone ID 326027 (antibody, V domains shown)
VH: B6 VH with S30R, G47W, R58K, E107D, Y112D
notes: as for B1
B12: anti-PSMA heavy-chain antibody clone ID 326028 (antibody, V domains shown)
VH: B6 VH with S30R, G47W, W52S, R58K, N74Y, E107D, Y112D
notes: as for B1
B13: anti-PSMA heavy-chain antibody clone ID 326029 (antibody, V domains shown)
VH: B6 VH with S31R, G47W, W52S, R58K, I102V, S108T
notes: as for B1
B14: anti-PSMA heavy-chain antibody clone ID 326084 (antibody, V domains shown)
VH: B6 VH with E107D
notes: as for B1
B15: anti-PSMA heavy-chain antibody clone ID 326087 (antibody, V domains shown)
VH: B6 VH with S28I, S30R, L45P, G47W, R58K, E107D, Y112D
notes: as for B1
B16: anti-PSMA heavy-chain antibody clone ID 326116 (antibody, V domains shown)
VH: B6 VH with S31R, W52S, R58K, N74Y, E107D, Y112D
notes: as for B1
B17: anti-PSMA heavy-chain antibody clone ID 345421 (antibody, V domains shown)
VH: B6 VH with G8V
notes: as for B1
B18: anti-PSMA heavy-chain antibody clone ID 345436 (antibody, V domains shown)
VH: B6 VH with S31R, R58K
notes: as for B1
B19: anti-PSMA heavy-chain antibody clone ID 345438 (antibody, V domains shown)
VH: B6 VH with L45P, G47W, R58K
notes: as for B1
B20: anti-PSMA heavy-chain antibody clone ID 345443 (antibody, V domains shown)
VH: B6 VH with Y80F
notes: as for B1
B21: anti-PSMA heavy-chain antibody clone ID 345444 (antibody, V domains shown)
VH: B6 VH with S28T
notes: as for B1
B22: anti-PSMA heavy-chain antibody clone ID 345447 (antibody, V domains shown)
VH: B6 VH with W52S
notes: as for B1
B23: anti-PSMA heavy-chain antibody clone ID 345461 (antibody, V domains shown)
VH: B6 VH with S30T
notes: as for B1
B24: anti-PSMA heavy-chain antibody clone ID 345463 (antibody, V domains shown)
VH: B6 VH with S28I, S30R, L45P, G47W, R58K
notes: as for B1
B25: anti-PSMA heavy-chain antibody clone ID 345480 (antibody, V domains shown)
VH: B6 VH with G47W
notes: as for B1
B26: anti-PSMA heavy-chain antibody clone ID 345482 (antibody, V domains shown)
VH: B6 VH with N74S
notes: as for B1
B27: anti-PSMA heavy-chain antibody clone ID 345485 (antibody, V domains shown)
VH: B6 VH with S30R, G47W, R58K, L79M
notes: as for B1
B28: anti-PSMA heavy-chain antibody clone ID 345490 (antibody, V domains shown)
VH: B6 VH with V11L, Q13K, R16G
notes: as for B1
B29: anti-PSMA heavy-chain antibody clone ID 345493 (antibody, V domains shown)
VH: B6 VH with S31R, G47W
notes: as for B1
B30: anti-PSMA heavy-chain antibody clone ID 345497 (antibody, V domains shown)
VH: B6 VH with S31R
notes: heavy chain-only antibody (UniAb/HCAb); also called HCAb 345497
B31: anti-PSMA heavy-chain antibody clone ID 345505 (antibody, V domains shown)
VH: B6 VH with S28T, S30I
notes: as for B1
B32: anti-PSMA heavy-chain antibody clone ID 345508 (antibody, V domains shown)
VH: B6 VH with L45P, G47W
notes: as for B1
B33: anti-PSMA heavy-chain antibody clone ID 345509 (antibody, V domains shown)
VH: B6 VH with V11L, R16G, R58K, L79M
notes: as for B1
B34: anti-PSMA heavy-chain antibody clone ID 345510 (antibody, V domains shown)
VH: B6 VH with G47W, R58K, L79M
notes: as for B1
B35: anti-PSMA heavy-chain antibody clone ID 325932 (antibody, V domains shown)
VH: B6 VH
notes: as for B1
B36: anti-BCMA heavy chain antibody clone ID 308837 (antibody, V domains shown)
VH: EVQLLESGGGLVQPGGSLRLSCAASGFTVSSYGMSWVRQAPGKGPEWVSGIRGSDGSTYYADSVKGRFTISRDNATNTLYLQMNSLRAEDTAVYYCAKQGGNDGPFDYRGQGTLVTVSS
notes: heavy chain-only antibody (UniAb)
B37: anti-BCMA heavy chain antibody clone ID 308635 (antibody, V domains shown)
VH: B36 VH with P14A, A75S, T76K, Y95H, G101E
notes: as for B36
B38: anti-BCMA heavy chain antibody clone ID 308636 (antibody, V domains shown)
VH: B36 VH with L4V, A40P, P45M, Y59F
notes: as for B36
B39: anti-BCMA heavy chain antibody clone ID 308806 (antibody, V domains shown)
VH: B36 VH with V29I, P45V, S57T, N74S, A75S, T76R, Y108H
notes: as for B36
B40: anti-BCMA heavy chain antibody clone ID 308902 (antibody, V domains shown)
VH: B36 VH with A75S, T76K, G101E, Y108H
notes: as for B36
B41: anti-BCMA heavy chain antibody clone ID 308912 (antibody, V domains shown)
VH: B36 VH with A40P, P45M, T76K
notes: as for B36

Experiments:
[1] = target: T2, human PSMA (Prostate Specific Membrane Antigen, Glutamate Carboxypeptidase II) (human, UniProt Q04609 1-750); experiment: flow cytometry on LNCaP cells
T2 construct: whole, on cells; the cell line is named under assay; also called FOLH1
Protocol: Briefly, 50,000 target cells were stained with a dilution series of purified UniAbs™ for 30 minutes at 4° C. Following incubation, the cells were washed twice with flow cytometry buffer (1×PBS, 1% BSA, 0.1% NaN₃) and stained with goat F(ab′)₂ anti-human IgG conjugated to R-phycoerythrin (PE) (Southern Biotech, cat. #2042-09) to detect cell-bound antibodies. After a 20-minute incubation at 4° C., the cells were washed twice with flow cytometry buffer and the mean fluorescence intensity (MFI) was measured by flow cytometry. The MFI of cells stained with secondary antibody alone were used for determination of background signal and binding of each antibody was converted to fold over background. Binding to cynomolgus PSMA positive cells was determined using the same protocol with the following modifications: the target cells were from Freestyle 293-F cells (ThermoFisher R79007) transiently transfected to express the extracellular domain of cynomolgus PSMA. In some experiments EC50 values were calculated using GraphPad Prism 7.
Column 1 indicates the clone ID of the HCAb. Column 2 indicates binding to LNCaP cells measured as fold over the background MFI signal.

[2] = target: T1, human B-cell maturation antigen (BCMA); experiment: ELISA protein and cell-binding assays

T2 sequence (Q04609 whole entry): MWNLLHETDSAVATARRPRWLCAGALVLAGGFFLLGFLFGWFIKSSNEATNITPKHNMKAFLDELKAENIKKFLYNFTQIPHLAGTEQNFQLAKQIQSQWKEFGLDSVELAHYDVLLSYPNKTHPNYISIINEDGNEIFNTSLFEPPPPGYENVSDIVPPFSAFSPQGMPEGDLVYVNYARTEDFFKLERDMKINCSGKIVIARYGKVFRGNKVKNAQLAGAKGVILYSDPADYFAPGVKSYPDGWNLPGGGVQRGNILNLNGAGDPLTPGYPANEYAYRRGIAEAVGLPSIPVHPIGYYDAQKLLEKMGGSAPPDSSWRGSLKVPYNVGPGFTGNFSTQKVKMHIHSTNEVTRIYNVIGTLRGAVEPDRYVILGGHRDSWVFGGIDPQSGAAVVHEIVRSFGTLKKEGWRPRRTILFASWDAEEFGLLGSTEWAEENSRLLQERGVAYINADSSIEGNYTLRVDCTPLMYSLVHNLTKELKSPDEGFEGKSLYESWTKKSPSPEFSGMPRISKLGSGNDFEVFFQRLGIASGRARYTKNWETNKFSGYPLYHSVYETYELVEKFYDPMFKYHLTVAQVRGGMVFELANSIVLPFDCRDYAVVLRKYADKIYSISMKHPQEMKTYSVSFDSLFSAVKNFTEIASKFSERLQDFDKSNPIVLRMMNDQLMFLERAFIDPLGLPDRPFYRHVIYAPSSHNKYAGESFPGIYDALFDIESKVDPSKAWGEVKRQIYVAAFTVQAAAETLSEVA

| Binder | fold over the background MFI signal [1] [fold over background MFI] | binding result [2] |
| --- | --- | --- |
| B1 | 216 |  |
| B2 | 282 |  |
| B3 | 25 |  |
| B4 | 243 |  |
| B5 | 264 |  |
| B6 | 193 |  |
| B7 | 200 |  |
| B8 | 163 |  |
| B9 | 210 |  |
| B10 | 169 |  |
| B11 | 138 |  |
| B12 | 117 |  |
| B13 | 109 |  |
| B14 | 125 |  |
| B15 | 129 |  |
| B16 | 38 |  |
| B17 | 22 |  |
| B18 | 87 |  |
| B19 | 13 |  |
| B20 | 84 |  |
| B21 | 23 |  |

| Binder | fold over the background MFI signal [1] [fold over background MFI] | binding result [2] |
| --- | --- | --- |
| B22 | 14 |  |
| B23 | 102 |  |
| B24 | 68 |  |
| B25 | 47 |  |
| B26 | 80 |  |
| B27 | 71 |  |
| B28 | 80 |  |
| B29 | 101 |  |
| B30 | 112 |  |
| B31 | 59 |  |
| B32 | 55 |  |
| B33 | 37 |  |
| B34 | 13 |  |
| B35 | 64 |  |
| B36 |  | binds |
| B37 |  | binds |
| B38 |  | binds |
| B39 |  | binds |
| B40 |  | binds |
| B41 |  | binds |
